{"source": "patent US20040091908A1", "biological_target": "potassium channel Kv4.3 T1 domain (tetramerization domain, residues 29-143, with N-terminal Met, C-terminal Leu-Glu and six His-tag)", "assay": "X-ray crystal structure of the T1 tetramer"}
{"substance": "potassium channel Kv4.3 T1 domain (tetramerization domain, residues 29-143, with N-terminal Met, C-terminal Leu-Glu and six His-tag)", "values": [{"measurement": "solvent-accessible surface area buried by each subunit at its two subunit interfaces", "value": 960, "unit": "Å^2"}]}
